Changes are numbered by the printed parent chain. Numbers in names are those of the source.
T1: PUF4 RNA-binding domain (Saccharomyces cerevisiae, UniProt P25339 537-888)
T1 sequence: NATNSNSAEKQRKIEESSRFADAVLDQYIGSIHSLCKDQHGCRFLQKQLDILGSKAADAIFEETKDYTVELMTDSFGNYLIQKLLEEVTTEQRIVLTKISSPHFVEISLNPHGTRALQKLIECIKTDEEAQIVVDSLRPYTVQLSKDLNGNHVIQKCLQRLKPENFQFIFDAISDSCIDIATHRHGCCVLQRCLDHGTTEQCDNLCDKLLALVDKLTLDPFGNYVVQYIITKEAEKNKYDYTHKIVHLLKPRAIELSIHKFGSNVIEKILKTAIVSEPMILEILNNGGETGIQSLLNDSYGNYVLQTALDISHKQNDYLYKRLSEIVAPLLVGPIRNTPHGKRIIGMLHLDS

B1: Ic_S2_P5E.1_K5.1_C5.1_H5.1_A5.1_[T5C]_F5.1_[T9A]_[A10T]_T5.1 (ssRNA)
RNA: UUUGAUUAAUAUGAUAUCGUUCUUUCUUGUACUAUAUUUCUUUCUCGAUAUCAUAUUAAUCUUU
B2: Ic_S2_P5E.1_K5.1_C5.1_H5.1_A5.1_[T5A]_[T6A]_[A7T]_F5.1_[A10T]_T5.1 (ssRNA)
RNA: B1 RNA with C32A, U33A, A34U, A36U
B3: Ic_S2_P5E.1_K5.1_C5.1_H5.1_A5.1_[T5A]_[T6A]_[A7T]_F5.1_[T8A]_[T9A]_[A10C]_T5.1 (ssRNA)
RNA: B1 RNA with C32A, U33A, A34U, U35A, U37C
B4: Ic_S2_P5E.1_K5.1_C5.1_H5.1_A5.1_[T5C]_[T6G]_[A7T]_F5.1_[T8G]_[T9G]_[A10T]_T5.1 (ssRNA)
RNA: B1 RNA with U33G, A34U, U35G, A36G
B5: Ic_S2_P5E.1_K5.1_C5.1_H5.1_A5.1_[T5C]_[T6A]_[A7C]_F5.1_[T9C]_[A10C]_T5.1 (ssRNA)
RNA: B1 RNA with U33A, A34C, A36C, U37C
B6: Ic_S2_P5E.1_K5.1_C5.1_H5.1_A5.1_[T6A]_[A7C]_F5.1_[T9A]_[A10C]_T5.1 (ssRNA)
RNA: B1 RNA with C32U, U33A, A34C, U37C
B7: Ic_S2_P5E.1_K5.1_C5.1_H5.1_A5.1_[T5G]_[A7C]_F5.1_[T9A]_T5.1 (ssRNA)
RNA: B1 RNA with C32G, A34C, U37A
B8: Ic_S2_P5E.1_K5.1_C5.1_H5.1_A5.1_[T5A]_[A7C]_F5.1_[T9C]_[A10T]_T5.1 (ssRNA)
RNA: B1 RNA with C32A, A34C, A36C
B9: Ic_S2_P5E.1_K5.1_C5.1_H5.1_A5.1_[T5C]_[T6A]_[A7C]_F5.1_[T8C]_[T9A]_[A10T]_T5.1 (ssRNA)
RNA: B1 RNA with U33A, A34C, U35C
B10: Ic_S2_P5E.1_K5.1_C5.1_H5.1_A5.1_[T5G]_[A7C]_F5.1_[T9G]_[A10T]_T5.1 (ssRNA)
RNA: B1 RNA with C32G, A34C, A36G
B11: Ic_S2_P5E.1_K5.1_C5.1_H5.1_A5.1_[T5C]_[T6A]_F5.1_[T9A]_T5.1 (ssRNA)
RNA: B1 RNA with U33A, U37A
B12: Ic_S2_P5E.1_K5.1_C5.1_H5.1_A5.1_[T6C]_[A7T]_F5.1_[T8A]_[A10C]_T5.1 (ssRNA)
RNA: B1 RNA with C32U, U33C, A34U, U35A, A36U, U37C
B13: Ic_S2_P5E.1_K5.1_C5.1_H5.1_A5.1_[A7G]_F5.1_[T8C]_[T9C]_T5.1 (ssRNA)
RNA: B1 RNA with C32U, A34G, U35C, A36C, U37A
B14: Ic_S2_P5E.1_K5.1_C5.1_H5.1_A5.1_[T5C]_[T6G]_[A7C]_F5.1_[T8C]_[T9C]_[A10C]_T5.1 (ssRNA)
RNA: B1 RNA with U33G, A34C, U35C, A36C, U37C
B15: Ic_S2_P5E.1_K5.1_C5.1_H5.1_A5.1_[T5A]_[T6A]_[A7C]_F5.1_[T9A]_T5.1 (ssRNA)
RNA: B1 RNA with C32A, U33A, A34C, U37A
B16: Ic_S2_P5E.1_K5.1_C5.1_H5.1_A5.1_[T5A]_[T6C]_[A7C]_F5.1_[T9C]_[A10G]_T5.1 (ssRNA)
RNA: B1 RNA with C32A, U33C, A34C, A36C, U37G
B17: Ic_S2_P5E.1_K5.1_C5.1_H5.1_A5.1_[A7T]_F5.1_[T8C]_[T9G]_[A10T]_T5.1 (ssRNA)
RNA: B1 RNA with C32U, A34U, U35C, A36G
B18: Ic_S2_P5E.1_K5.1_C5.1_H5.1_A5.1_[T5C]_[T6A]_[A7C]_F5.1_[T9C]_T5.1 (ssRNA)
RNA: B1 RNA with U33A, A34C, A36C, U37A
B19: Ic_S2_P5E.1_K5.1_C5.1_H5.1_A5.1_[T6A]_[A7C]_F5.1_[T8G]_[T9G]_[A10T]_T5.1 (ssRNA)
RNA: B1 RNA with C32U, U33A, A34C, U35G, A36G
B20: Ic_S2_P5E.1_K5.1_C5.1_H5.1_A5.1_[T5C]_[T6C]_F5.1_[A10T]_T5.1 (ssRNA)
RNA: B1 RNA with U33C, A36U
B21: Ic_S2_P5E.1_K5.1_C5.1_H5.1_A5.1_[T5G]_[A7T]_F5.1_[T8G]_[T9C]_[A10T]_T5.1 (ssRNA)
RNA: B1 RNA with C32G, A34U, U35G, A36C
B22: Ic_S2_P5E.1_K5.1_C5.1_H5.1_A5.1_[T6G]_[A7T]_F5.1_[T8A]_[T9C]_[A10T]_T5.1 (ssRNA)
RNA: B1 RNA with C32U, U33G, A34U, U35A, A36C
B23: Ic_S2_P5E.1_K5.1_C5.1_H5.1_A5.1_[T5C]_[T6C]_F5.1_[T9C]_[A10T]_T5.1 (ssRNA)
RNA: B1 RNA with U33C, A36C
B24: Ic_S2_P5E.1_K5.1_C5.1_H5.1_A5.1_[T5C]_[T6C]_F5.1_[T9A]_[A10C]_T5.1 (ssRNA)
RNA: B1 RNA with U33C, U37C
B25: Ic_S2_P5E.1_K5.1_C5.1_H5.1_A5.1_[T5A]_[T6C]_[A7C]_F5.1_[T8C]_[T9A]_T5.1 (ssRNA)
RNA: B1 RNA with C32A, U33C, A34C, U35C, U37A
B26: Ic_S2_P5E.1_K5.1_C5.1_H5.1_A5.1_[T5C]_[T6A]_F5.1_[A10C]_T5.1 (ssRNA)
RNA: B1 RNA with U33A, A36U, U37C
B27: Ic_S2_P5E.1_K5.1_C5.1_H5.1_A5.1_[T5C]_[T6C]_F5.1_[T8G]_[T9C]_[A10T]_T5.1 (ssRNA)
RNA: B1 RNA with U33C, U35G, A36C
B28: Ic_S2_P5E.1_K5.1_C5.1_H5.1_A5.1_[T5A]_[A7G]_F5.1_[T8G]_T5.1 (ssRNA)
RNA: B1 RNA with C32A, A34G, U35G, A36U, U37A
B29: Ic_S2_P5E.1_K5.1_C5.1_H5.1_A5.1_[T5C]_[T6C]_[A7T]_F5.1_[T9G]_[A10G]_T5.1 (ssRNA)
RNA: B1 RNA with U33C, A34U, A36G, U37G
B30: Ic_S2_P5E.1_K5.1_C5.1_H5.1_A5.1_[T6A]_[A7C]_F5.1_[T9A]_[A10G]_T5.1 (ssRNA)
RNA: B1 RNA with C32U, U33A, A34C, U37G
B31: Ic_S2_P5E.1_K5.1_C5.1_H5.1_A5.1_[T5C]_[A7T]_F5.1_[T8C]_[T9A]_[A10T]_T5.1 (ssRNA)
RNA: B1 RNA with A34U, U35C
B32: Ic_S2_P5E.1_K5.1_C5.1_H5.1_A5.1_F5.1_[T8A]_[T9C]_[A10T]_T5.1 (ssRNA)
RNA: B1 RNA with C32U, U35A, A36C
B33: Ic_S2_P5E.1_K5.1_C5.1_H5.1_A5.1_[T5C]_[T6C]_F5.1_[T8G]_[A10C]_T5.1 (ssRNA)
RNA: B1 RNA with U33C, U35G, A36U, U37C
B34: Ic_S2_P5E.1_K5.1_C5.1_H5.1_A5.1_[A7C]_F5.1_[T8G]_[T9G]_[A10T]_T5.1 (ssRNA)
RNA: B1 RNA with C32U, A34C, U35G, A36G
B35: Ic_S2_P5E.1_K5.1_C5.1_H5.1_A5.1_[T5G]_[T6C]_[A7T]_F5.1_[T8A]_[A10T]_T5.1 (ssRNA)
RNA: B1 RNA with C32G, U33C, A34U, U35A, A36U
B36: Ic_S2_P5E.1_K5.1_C5.1_H5.1_A5.1_[T5C]_[T6A]_[A7C]_F5.1_[T8C]_[T9C]_[A10C]_T5.1 (ssRNA)
RNA: B1 RNA with U33A, A34C, U35C, A36C, U37C
B37: Ic_S2_P5E.1_K5.1_C5.1_H5.1_A5.1_[T5A]_[T6C]_[A7T]_F5.1_[T8G]_[T9C]_[A10T]_T5.1 (ssRNA)
RNA: B1 RNA with C32A, U33C, A34U, U35G, A36C
B38: Ic_S2_P5E.1_K5.1_C5.1_H5.1_A5.1_[T5A]_F5.1_[T9A]_[A10T]_T5.1 (ssRNA)
RNA: B1 RNA with C32A
B39: Ic_S2_P5E.1_K5.1_C5.1_H5.1_A5.1_[T5A]_[A7T]_F5.1_[T8G]_[T9C]_[A10C]_T5.1 (ssRNA)
RNA: B1 RNA with C32A, A34U, U35G, A36C, U37C
B40: Ic_S2_P5E.1_K5.1_C5.1_H5.1_A5.1_[T5A]_[T6A]_[A7T]_F5.1_[T8C]_[A10T]_T5.1 (ssRNA)
RNA: B1 RNA with C32A, U33A, A34U, U35C, A36U
B41: Ic_S2_P5E.1_K5.1_C5.1_H5.1_A5.1_[T5A]_[T6C]_[A7C]_F5.1_[T8C]_[T9A]_[A10T]_T5.1 (ssRNA)
RNA: B1 RNA with C32A, U33C, A34C, U35C

Biological target: T1, PUF4 RNA-binding domain
Assay: Mg; RNA-MaP; 20 mM Na-HEPES pH 7.4, 30 mM KOAc, 0.75 mM MgCl2, 0.1% Tween-20, 5% glycerol, 0.1 mg/mL BSA, 2 mM DTT; 25 C; 0.0125-409.6 nM protein
Conditions: tags: N-His6-TEV cleaved; C-SNAP kept, Cy3B-labelled; label: tethered on chip by stalled RNA polymerase

Binder	Kd
B1	0.408 nM
B2	17.4 nM
B3	30.3 nM
B4	211 nM
B5	5.44 nM
B6	1.15 nM
B7	6.4 nM
B8	36.5 nM
B9	14.9 nM
B10	60.9 nM
B11	0.983 nM
B12	12.7 nM
B13	497 nM
B14	140 nM
B15	1.9 nM
B16	563 nM
B17	86.5 nM
B18	7.78 nM
B19	571 nM
B20	2.17 nM
B21	436 nM
B22	26.3 nM
B23	5.17 nM

Binder	Kd
B24	1.13 nM
B25	> 2300 nM
B26	6.33 nM
B27	496 nM
B28	48.9 nM
B29	210 nM
B30	1.41 nM
B31	80.5 nM
B32	558 nM
B33	192 nM
B34	475 nM
B35	43.1 nM
B36	67.3 nM
B37	189 nM
B38	1.32 nM
B39	622 nM
B40	76.2 nM
B41	591 nM
UCUCUUUGUUUAUCAUCUCUU (ssRNA) [Ib_S1_P4E.1_K4.1_C4.1_H4.1_[A4T]_A4.1_F4.1_[T8C]_T4.1]	917 nM
UCUCUUUGUUUAUAAUCUCUU (ssRNA) [Ib_S1_P4E.1_K4.1_C4.1_H4.1_[A4T]_A4.1_F4.1_[T8A]_T4.1]	495 nM
UCUCUUUGUGUAUAAUCUCUU (ssRNA) [Ib_S1_P4E.1_K4.1_C4.1_H4.1_[A4G]_A4.1_F4.1_[T8A]_T4.1]	11.4 nM
UCUCUUUGUCUAUAAUCUCUU (ssRNA) [Ib_S1_P4E.1_K4.1_C4.1_H4.1_[A4C]_A4.1_F4.1_[T8A]_T4.1]	1620 nM
